Consider 45 molecules from US20190218553, “VON WILLEBRAND FACTOR (VWF)-TARGETING AGENTS AND METHODS OF USING THE SAME” (DUKE UNIVERSITY, published 2019).

The chains are these.
B1: T82 vrt1 (ssRNA)
RNA: ACGAACUGCCCUCGAUCGACGCACAGACGUACCCG
modifications: 2'-F C2,U7,C9,C10,C11,U12,C20,C22,C28,U30; ribo A1,G3,G8,A19,G21,A23,G29; rest 2'-OMe; 3' idT
B2: T19 (ssRNA)
RNA: GGGAGGUGGACGAACUGCCCUCUUUCAUGUUGCUGACGCACAGACGACUCGCUG
modifications: 2'-F C and U; 2'-OH A and G
B3: T13 (ssRNA)
RNA: GGGAGGUGCCCUCAGCUACUUUCAUGUUGCUGACGCACAGACGACUCGCUG
modifications: 2'-F C and U; 2'-OH A and G
B4: T20 (ssRNA)
RNA: GGGAGGUGGACGAACUGCCCUCUACUUUCAUGUUGACGCACAGACGACUCGCUG
modifications: 2'-F C and U; 2'-OH A and G
B5: T87 vrt1 (ssRNA)
RNA: ACGAACUGCCCUCUUUCAUGACGCACAGACGU
modifications: 2'-F C2,U7,C9,C10,C11,U12,C22,C24,C30,U32; ribo A1,G3,G8,A21,G23,A25,G31; rest 2'-OMe; 3' idT

One series addresses T1, von Willebrand factor (VWF) (Homo sapiens, UniProt P04275 P04275:764-2813). The experiment in a line: filter; Bmax 76%; 2 mM CaCl2, 37 C. Conditions: tags: factor VIII free human purified VWF, Haematologic Technologies Inc; label: 5'-32P. How it is done: (§1) Affinity constants (Kd values) were determined using double-filter nitrocellulose filter binding assays (Rusconi et al, Thromb. Haemost. $4:841-848 (2000)). All binding studies were performed in binding buffer F (20 mM HEPES, pH 7.4, 150 mM NaCl, 2 mM CaCl₂, and 0.01% BSA) at 37° C. Human purified VWF (factor VIII free) was purchased from Haematologic Technologies Inc. (Essex Junction, Vt.) and used in the double-filter nitrocellulose filter binding assay to determine the Kd of the aptamers. Briefly, RNA were end-labeled at the 5′ end with T4 polynucleotide kinase (New England Biolabs, Beverly, Mass.) and [γ³²P] ATP (Amersham Pharmacia Biotech, Piscataway, N.J.) (Fitzwater and Polisky, Methods Enzymol. 267:275-301 (1996)). End-labeled RNA was diluted in binding buffer F, heat denatured at 65° C. for 5 minutes, and subsequently equilibrated at 37° C. Direct binding was performed by incubating trace ³²P-RNA with varying concentrations of VWF protein in binding buffer F at 37° C. for 5 min. The fraction of the nucleic acid-protein complex which bound to the nitrocellulose membrane was quantified with a phosphorimager (Molecular Dynamics, Sunnyvale, Calif.). Non-specific binding of the radiolabeled nucleic acid was subtracted out of the binding such that only specific binding remained (Wong and Lohman, Proc. Natl. Acad. Sci. USA 90:5428-5432 (1993)).
One may read the Kd as the equilibrium constant for the complex coming apart. Read a low Kd as a tighter complex. Turning to ACGAACUGCCCUCGAUCGACGCACAGACGU (ssRNA, 2'-F C10,C11,C20,C22,U30; ribo G21; rest 2'-OMe; 3' idT) [T59 vrt29], the affinity, expressed as Kd, was 19 nM.
Molecule ACGAACUGCCCUCUAUUUCAUUUGACGCACAGACGU (ssRNA, 2'-F C9,C10,C11,C26,G27,C28; rest 2'-OMe; 3' idT) [T93 vrt7] yielded a Kd of 20 nM.
The same measure, in the same setting: in the case of B1 it was 3.8 nM.

Staying with this series, now noted: tags: factor VIII free, Haematologic Technologies Inc; label: 5'-32P.
The molecule ACGAACUGCCCUCUAUUUCAUUUGACGCACAGACGU (ssRNA, 2'-F C and U; 2'-OH A and G; 3' idT) [T93] had a Kd of 6.4 nM. This counts as single-digit nanomolar.
On the same count and under the same terms, to ACGAACUGCCCUCGAUCGACGCACAGACGUACCCG (ssRNA, 2'-F C and U; 2'-OH A and G; 3' idT) [T82] belongs 5.3 nM.
Consider ACGAACUGCCCUCGAUCGACGCACAGACGUACACG (ssRNA, 2'-F C and U; 2'-OH A and G; 3' idT) [T84], for which the Kd came out at 3.7 nM.
On to ACGAACUGCCCUCGAUCGACGCACAGACGU (ssRNA, rAfCrGmAmAmCfUrGfCfCfCfUmCmGmAmUmCmGrAfCmGfCrAmCmAmGmAfCrGfU-idT) [T59 vrt13], for which binding was characterised by a dissociation constant (Kd) of 29 nM.
Turning to ACGAACUGCCCUCGAUCGACGCACAGACGU (ssRNA, rAfCrGmAmAmCfUrGfCfCfCfUmCmGmAmUmCmGrAfCrGfCrAmCmAmGmAfCrGfU-idT) [T59 vrt1], the affinity, expressed as Kd, was 1.5 nM. Against the preceding molecule, the Kd is about 19-fold lower.

A further series deals with T1, von Willebrand factor (VWF). The experiment in a line: filter; NB; 2 mM CaCl2, 37 C. The note with it: tags: factor VIII free human purified VWF, Haematologic Technologies Inc; label: 5'-32P. Here is the method: as §1
As to ACGAAAUGGAAUCGUAAGAACCACAGACGUUUUUU (ssRNA, all 2'-OMe; 3' idT) [DTRI-022], the binding result was “no binding”.

Staying with this series, now noted: tags: factor VIII free, Haematologic Technologies Inc; label: 5'-32P.
ACGAACUGCCCUCGCGACGCACAGACGU (ssRNA, 2'-F C and U; 2'-OH A and G; 3' idT) [T58]: the binding result is “no binding”.
GGGAGGUGGACGAACUGCCCUACGCACAGACGACUCGCUG (ssRNA, 2'-F C and U; 2'-OH A and G) [T17]: the binding result is “no binding”.
On the same count and under the same terms, to ACGAACUGCCCUCGAUUAUUCGACCACAGACGU (ssRNA, 2'-F C and U; 2'-OH A and G; 3' idT) [T67] belongs “no binding”; to GGGAGGUCAGCUACUUUCAUGUUGCUGA (ssRNA, 2'-F C and U; 2'-OH A and G) [T14], “no binding”.
The same measure, in the same setting: to B2 belongs “no binding”; to B3, “no binding”; to ACGAACUGCUCGAUUAUUCGAGCACAGACGU (ssRNA, 2'-F C and U; 2'-OH A and G; 3' idT) [T66], “no binding”.
With ACGAACUGCCCUUUAUACGCACAGACGU (ssRNA, 2'-F C and U; 2'-OH A and G; 3' idT) [T65], the binding result was “no binding”.
Still for that read-out and setting: in the case of ACGAACUGCCCUACGCACAGACGU (ssRNA, 2'-F C and U; 2'-OH A and G; 3' idT) [T56] it was “no binding”; in that of ACGAACUCCCUCGAUUAUUCGACGACAGACGU (ssRNA, 2'-F C and U; 2'-OH A and G; 3' idT) [T62], “no binding”.
On to ACGAACUGCCCUCAGCUACUUUCAUGUUGCUGACGCACAACGU (ssRNA, 2'-F C and U; 2'-OH A and G; 3' idT) [T53], for which the binding result is listed as “no binding”.
Regarding ACGAACUGCCCUCAGCUACUUUCAUGUUGCUGACGCACGACGU (ssRNA, 2'-F C and U; 2'-OH A and G; 3' idT) [T54], the binding result is listed as “no binding”.
With ACGAACUGCCCCGCACAGACGU (ssRNA, 2'-F C and U; 2'-OH A and G; 3' idT) [T61], the binding result is “no binding”.
Turning to B4, the binding result is recorded as “no binding”.
Take ACGACUGCCCUCAGCUACUUUCAUGUUGCUGACGCACACGU (ssRNA, 2'-F C and U; 2'-OH A and G; 3' idT) [T55]: the binding result was “no binding”.

The next series has the same target. The experiment in a line: filter; NB; loop CAGA mutated; 2 mM CaCl2, 37 C. The note with it: tags: factor VIII free, Haematologic Technologies Inc; label: 5'-32P. How it is done:
as §1
As to ACGAACUGCCCUCUUUUUUUUGACGCACCCCCGU (ssRNA, 2'-F C and U; 2'-OH A and G; 3' idT) [T96], the binding result was “no binding”.
Turning to ACGAACUGCCCUCUAUUAUUUGACGCACCCCCGU (ssRNA, 2'-F C and U; 2'-OH A and G; 3' idT) [T99], the binding result is “no binding”.
Take ACGAACUGCCCUCGUUUCAUCGACGCACCCCCGU (ssRNA, 2'-F C and U; 2'-OH A and G; 3' idT) [T97]: the binding result is “no binding”.
For the molecule ACGAACUGCCCUCUUUCAUGACGCACCCCCGU (ssRNA, 2'-F C and U; 2'-OH A and G; 3' idT) [T98], the binding result is “no binding”.

The next series has the same target. Description: filter; Bmax 77%; 2 mM CaCl2, 37 C. Conditions: tags: factor VIII free human purified VWF, Haematologic Technologies Inc; label: 5'-32P. How it is done: as §1
ACGAACUGCCCUCGAUCGACGCACAGACGU (ssRNA, 2'-F U7,C9,C10,C11,U12,C20,C22,U30; ribo G21; rest 2'-OMe; 3' idT) [T59 vrt23] had a Kd of 1.7 nM. In other words, the single-digit nanomolar range.
As for ACGAACUGCCCUCGAUCGACGCACAGACGUAAAAA (ssRNA, 2'-F C9,C10,C11,C20,C22; ribo G21; rest 2'-OMe; 3' idT) [T83 vrt4], binding was characterised by a dissociation constant (Kd) of 20 nM.
In the case of ACGAACUGCCCUCGAUCGACGCACAGACGUACACG (ssRNA, 2'-F C9,C10,C11,C20,C22; ribo G21; rest 2'-OMe; 3' idT) [T84 vrt4], the Kd turned out to be 22 nM.

Staying with this series, now noted: tags: factor VIII free, Haematologic Technologies Inc; label: 5'-32P.
In turn, ACGAACUGCCCUCGAUCGACGCACAGACGUAAA (ssRNA, 2'-F C and U; 2'-OH A and G; 3' idT) [T80] had a Kd of 6.3 nM.
Regarding ACGAACUGCCCUCGUUAUCGACGCACAGACGU (ssRNA, 2'-F C and U; 2'-OH A and G; 3' idT) [T71], binding was characterised by a dissociation constant (Kd) of 10 nM.
As to ACGAACUGCCCUCUAUUAUUUGACGCACAGACGU (ssRNA, 2'-F C and U; 2'-OH A and G; 3' idT) [T90], the Kd is 3.8 nM.

A further series has the same target. Description: filter; Bmax 85%; 2 mM CaCl2, 37 C. Conditions: tags: factor VIII free human purified VWF, Haematologic Technologies Inc; label: 5'-32P. How it is done: as §1
For ACGAACUGCCCUCGUUUCAUCGACGCACAGACGU (ssRNA, 2'-F C9,C10,C11,C24,G25,C26,U34; rest 2'-OMe; 3' idT) [T86 vrt6], the affinity, expressed as Kd, was 52 nM.
With B5, the Kd stood at 1.5 nM.
ACGAACUGCCCUCGUAUUAUUUCGACGCACAGACGU (ssRNA, 2'-F C9,C10,C11,C26,C28; ribo G27; rest 2'-OMe; 3' idT) [T89 vrt4] yielded a Kd of 8.4 nM.
Molecule ACGAACUGCCCUCGAUCGACGCACAGACGU (ssRNA, 2'-F U7,C9,C10,C11,U12,C20,C22,U30; ribo A23; rest 2'-OMe; 3' idT) [T59 vrt21] displayed a Kd of 27 nM.
In the case of ACGAACUGCCCUCUAUUAUUUGACGCACAGACGU (ssRNA, 2'-F C9,C10,C11,C24,C26; ribo G25; rest 2'-OMe; 3' idT) [T90 vrt4], the affinity, expressed as Kd, was 10.2 nM.

Still in this series, the particulars now being: tags: factor VIII free, Haematologic Technologies Inc; label: 5'-32P.
Take ACGAACUGCCCUCGAUCGACGCACAGACGU (ssRNA, rAfCrGmAmAmCfUrGfCfCfCfUmCmGmAmUmCmGrAfCrGfCmAmCmAmGmAfCrGfU-idT) [T59 vrt12]: the Kd was 6.9 nM.

For the next series the target is unchanged. The experiment in a line: filter; Bmax 61%; 2 mM CaCl2, 37 C. Conditions: tags: factor VIII free, Haematologic Technologies Inc; label: 5'-32P. How it is done:
as §1
Consider ACGAACUGCCCUCGCUACUUUCAUGUUGCGACGCACAGACGU (ssRNA, 2'-F C and U; 2'-OH A and G; 3' idT) [T34], for which the Kd is 10 nM. That is a double-digit nanomolar value.
In turn, ACGAACUGCCCUCGCACUUAUGUGCGACGCACAGACGU (ssRNA, 2'-F C and U; 2'-OH A and G; 3' idT) [T50] returned a Kd of 9.6 nM.
The same measure, in the same setting: to ACGAACUGCCCUCGAUCGACGCACAGACGUUUUUU (ssRNA, mAmCmGmAmAmCmUmGfCfCfCmUmCmGmAmUmCmGmAfCfGfCmAmCmAmGmAmCmGfUmUmUmUmUmU-idT) [T79 vrt6] belongs 60.5 nM; to ACGAACUGCCCUCGAUCGACGCACAGACGUAAAAA (ssRNA, 2'-F C and U; 2'-OH A and G; 3' idT) [T83], 3.5 nM.
Consider ACGAACUGCCCUCGAUCGACGCACAGACGU (ssRNA, mAmCmGmAmAmCfUmGfCfCfCmUmCmGmAmUmCmGmAfCmGfCmAmCmAmGmAmCmGfU-idT) [T59 vrt5], for which binding was characterised by a dissociation constant (Kd) of 260 nM. This Kd is about 74-fold higher than that of the molecule before.
